Numbered stars: 1 amine (or outer) side, 2 acyl side, 3 side chain; on linkers, the order of the positions; unused ones are H or OH. Bridge positions count the residues as written; N and C are the ends. Square brackets hold non-standard residues; d marks the D form. Side chains are listed from the residue outwards. Ends that are not written are not given here. * marks the point of attachment. C18 diacid = O=C(O)CCCCCCCCCCCCCCCCC(=O)*; γGlu = O=C(O)[C@H](CCC(=O)[*:2])N[*:1]; Aib = CC(C)(N)C(=O)O
T1: human amylin receptor (calcitonin receptor co-expressed with receptor activity modifying protein, RAMP3) (human, UniProt P30988 25-474; O60896 24-148)
T1 sequence (looked up) 1: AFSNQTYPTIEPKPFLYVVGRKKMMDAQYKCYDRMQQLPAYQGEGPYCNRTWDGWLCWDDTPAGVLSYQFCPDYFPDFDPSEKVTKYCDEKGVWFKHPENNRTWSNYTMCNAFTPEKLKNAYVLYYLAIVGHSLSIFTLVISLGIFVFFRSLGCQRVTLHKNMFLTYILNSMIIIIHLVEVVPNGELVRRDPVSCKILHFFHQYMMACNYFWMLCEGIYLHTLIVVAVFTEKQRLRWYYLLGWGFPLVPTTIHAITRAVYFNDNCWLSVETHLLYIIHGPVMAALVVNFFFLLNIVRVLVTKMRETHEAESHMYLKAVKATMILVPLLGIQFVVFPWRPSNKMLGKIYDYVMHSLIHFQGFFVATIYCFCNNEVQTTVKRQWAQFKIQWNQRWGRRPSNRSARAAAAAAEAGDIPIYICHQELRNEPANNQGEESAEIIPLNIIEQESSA
T1 sequence (looked up) 2: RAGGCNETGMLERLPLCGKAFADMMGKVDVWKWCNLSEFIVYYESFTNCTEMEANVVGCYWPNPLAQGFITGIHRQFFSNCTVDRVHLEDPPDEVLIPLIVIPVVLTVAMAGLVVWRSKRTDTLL

T2: human calcitonin receptor (human, UniProt P30988 25-474)
T2 sequence (looked up): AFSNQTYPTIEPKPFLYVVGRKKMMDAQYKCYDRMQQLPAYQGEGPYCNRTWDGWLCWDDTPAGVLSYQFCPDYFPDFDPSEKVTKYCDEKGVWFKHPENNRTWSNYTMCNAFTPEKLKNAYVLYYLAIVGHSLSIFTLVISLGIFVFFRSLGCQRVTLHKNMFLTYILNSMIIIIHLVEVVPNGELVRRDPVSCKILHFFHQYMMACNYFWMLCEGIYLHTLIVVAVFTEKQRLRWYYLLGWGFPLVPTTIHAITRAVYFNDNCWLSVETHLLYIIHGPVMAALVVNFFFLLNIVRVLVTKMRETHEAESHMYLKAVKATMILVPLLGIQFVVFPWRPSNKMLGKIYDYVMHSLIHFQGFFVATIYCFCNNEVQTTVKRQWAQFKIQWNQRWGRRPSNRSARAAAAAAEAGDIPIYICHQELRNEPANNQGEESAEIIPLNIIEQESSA


Assays:
[1] = biological target: T1, human amylin receptor (calcitonin …); test: cell-based or functional assay
[2] = biological target: T2, human calcitonin receptor; test: cell-based or functional assay

Row | Binder | EC50 (cAMP production) [1] [nM] | Ratio (EC50 hCTR / EC50 hAMYR3) [1] | EC50 (cAMP production) [2] [nM]
1 | K([γGlu-C18 diacid])KCNTATCATQRLANFLVHSS[Aib]NFGP[Aib]LPPTNVGSNTY-NH2 (disulfide 3-8; N-terminus assumed; SMILES CC(C)C[C@H](NC(=O)[C@H](CCCNC(=N)N)NC(=O)[C@H](CCC(N)=O)NC(=O)[C@@H](NC(=O)[C@H](C)NC(=O)[C@@H]1CSSC[C@H](NC(=O)[C@H](CCCCN)NC(=O)[C@@H](N)CCCCNC(=O)CC[C@H](NC(=O)CCCCCCCCCCCCCCCCC(=O)O)C(=O)O)C(=O)N[C@@H](CC(N)=O)C(=O)N[C@@H]([C@@H](C)O)C(=O)N[C@@H](C)C(=O)N[C@@H]([C@@H](C)O)C(=O)N1)[C@@H](C)O)C(=O)N[C@@H](C)C(=O)N[C@@H](CC(N)=O)C(=O)N[C@@H](Cc1ccccc1)C(=O)N[C@@H](CC(C)C)C(=O)N[C@H](C(=O)N[C@@H](Cc1c[nH]cn1)C(=O)N[C@@H](CO)C(=O)N[C@@H](CO)C(=O)NC(C)(C)C(=O)N[C@@H](CC(N)=O)C(=O)N[C@@H](Cc1ccccc1)C(=O)NCC(=O)N1CCC[C@H]1C(=O)NC(C)(C)C(=O)N[C@@H](CC(C)C)C(=O)N1CCC[C@H]1C(=O)N1CCC[C@H]1C(=O)N[C@H](C(=O)N[C@@H](CC(N)=O)C(=O)N[C@H](C(=O)NCC(=O)N[C@@H](CO)C(=O)N[C@@H](CC(N)=O)C(=O)N[C@H](C(=O)N[C@@H](Cc1ccc(O)cc1)C(N)=O)[C@@H](C)O)C(C)C)[C@@H](C)O)C(C)C) [Peptide 78 (SEQ ID NO: 78)] | 0.288 | 11 | 3.15
2 | K([γGlu-C18 diacid])KCNTATCATQRLANFLVHSS[Aib]NFGPILPPTNV[Aib]SNTY-NH2 (disulfide 3-8; N-terminus assumed; SMILES CC[C@H](C)[C@H](NC(=O)[C@@H]1CCCN1C(=O)CNC(=O)[C@H](Cc1ccccc1)NC(=O)[C@H](CC(N)=O)NC(=O)C(C)(C)NC(=O)[C@H](CO)NC(=O)[C@H](CO)NC(=O)[C@H](Cc1c[nH]cn1)NC(=O)[C@@H](NC(=O)[C@H](CC(C)C)NC(=O)[C@H](Cc1ccccc1)NC(=O)[C@H](CC(N)=O)NC(=O)[C@H](C)NC(=O)[C@H](CC(C)C)NC(=O)[C@H](CCCNC(=N)N)NC(=O)[C@H](CCC(N)=O)NC(=O)[C@@H](NC(=O)[C@H](C)NC(=O)[C@@H]1CSSC[C@H](NC(=O)[C@H](CCCCN)NC(=O)[C@@H](N)CCCCNC(=O)CC[C@H](NC(=O)CCCCCCCCCCCCCCCCC(=O)O)C(=O)O)C(=O)N[C@@H](CC(N)=O)C(=O)N[C@@H]([C@@H](C)O)C(=O)N[C@@H](C)C(=O)N[C@@H]([C@@H](C)O)C(=O)N1)[C@@H](C)O)C(C)C)C(=O)N[C@@H](CC(C)C)C(=O)N1CCC[C@H]1C(=O)N1CCC[C@H]1C(=O)N[C@H](C(=O)N[C@@H](CC(N)=O)C(=O)N[C@H](C(=O)NC(C)(C)C(=O)N[C@@H](CO)C(=O)N[C@@H](CC(N)=O)C(=O)N[C@H](C(=O)N[C@@H](Cc1ccc(O)cc1)C(N)=O)[C@@H](C)O)C(C)C)[C@@H](C)O) [Peptide 81 (SEQ ID NO: 81)] | 0.404 | 7 | 2.76
3 | K([γGlu-γGlu-C18 diacid])CNTATCATQRLANFLRHSS[Aib]NFGPILPPTRVGSNTY-NH2 (disulfide 2-7; N-terminus assumed; SMILES CC[C@H](C)[C@H](NC(=O)[C@@H]1CCCN1C(=O)CNC(=O)[C@H](Cc1ccccc1)NC(=O)[C@H](CC(N)=O)NC(=O)C(C)(C)NC(=O)[C@H](CO)NC(=O)[C@H](CO)NC(=O)[C@H](Cc1c[nH]cn1)NC(=O)[C@H](CCCNC(=N)N)NC(=O)[C@H](CC(C)C)NC(=O)[C@H](Cc1ccccc1)NC(=O)[C@H](CC(N)=O)NC(=O)[C@H](C)NC(=O)[C@H](CC(C)C)NC(=O)[C@H](CCCNC(=N)N)NC(=O)[C@H](CCC(N)=O)NC(=O)[C@@H](NC(=O)[C@H](C)NC(=O)[C@@H]1CSSC[C@H](NC(=O)[C@@H](N)CCCCNC(=O)CC[C@H](NC(=O)CC[C@H](NC(=O)CCCCCCCCCCCCCCCCC(=O)O)C(=O)O)C(=O)O)C(=O)N[C@@H](CC(N)=O)C(=O)N[C@@H]([C@@H](C)O)C(=O)N[C@@H](C)C(=O)N[C@@H]([C@@H](C)O)C(=O)N1)[C@@H](C)O)C(=O)N[C@@H](CC(C)C)C(=O)N1CCC[C@H]1C(=O)N1CCC[C@H]1C(=O)N[C@H](C(=O)N[C@@H](CCCNC(=N)N)C(=O)N[C@H](C(=O)NCC(=O)N[C@@H](CO)C(=O)N[C@@H](CC(N)=O)C(=O)N[C@H](C(=O)N[C@@H](Cc1ccc(O)cc1)C(N)=O)[C@@H](C)O)C(C)C)[C@@H](C)O) [Peptide 77 (SEQ ID NO: 77)] | 0.231 | 11 | 2.52
4 | K([γGlu-C18 diacid])CNTATCATQRLANFLRHSS[Aib]NFGPILPPTRVGSNTY-NH2 (disulfide 2-7; N-terminus assumed; SMILES CC[C@H](C)[C@H](NC(=O)[C@@H]1CCCN1C(=O)CNC(=O)[C@H](Cc1ccccc1)NC(=O)[C@H](CC(N)=O)NC(=O)C(C)(C)NC(=O)[C@H](CO)NC(=O)[C@H](CO)NC(=O)[C@H](Cc1c[nH]cn1)NC(=O)[C@H](CCCNC(=N)N)NC(=O)[C@H](CC(C)C)NC(=O)[C@H](Cc1ccccc1)NC(=O)[C@H](CC(N)=O)NC(=O)[C@H](C)NC(=O)[C@H](CC(C)C)NC(=O)[C@H](CCCNC(=N)N)NC(=O)[C@H](CCC(N)=O)NC(=O)[C@@H](NC(=O)[C@H](C)NC(=O)[C@@H]1CSSC[C@H](NC(=O)[C@@H](N)CCCCNC(=O)CC[C@H](NC(=O)CCCCCCCCCCCCCCCCC(=O)O)C(=O)O)C(=O)N[C@@H](CC(N)=O)C(=O)N[C@@H]([C@@H](C)O)C(=O)N[C@@H](C)C(=O)N[C@@H]([C@@H](C)O)C(=O)N1)[C@@H](C)O)C(=O)N[C@@H](CC(C)C)C(=O)N1CCC[C@H]1C(=O)N1CCC[C@H]1C(=O)N[C@H](C(=O)N[C@@H](CCCNC(=N)N)C(=O)N[C@H](C(=O)NCC(=O)N[C@@H](CO)C(=O)N[C@@H](CC(N)=O)C(=O)N[C@H](C(=O)N[C@@H](Cc1ccc(O)cc1)C(N)=O)[C@@H](C)O)C(C)C)[C@@H](C)O) [Peptide 76 (SEQ ID NO: 76)] | 0.209 | 107 | 22.3
5 | K([γGlu-C18 diacid])KCNTATCATQRLANFLVHSS[Aib]NFGPI[Aib]PPTNVGSNTY-NH2 (disulfide 3-8; N-terminus assumed; SMILES CC[C@H](C)[C@H](NC(=O)[C@@H]1CCCN1C(=O)CNC(=O)[C@H](Cc1ccccc1)NC(=O)[C@H](CC(N)=O)NC(=O)C(C)(C)NC(=O)[C@H](CO)NC(=O)[C@H](CO)NC(=O)[C@H](Cc1c[nH]cn1)NC(=O)[C@@H](NC(=O)[C@H](CC(C)C)NC(=O)[C@H](Cc1ccccc1)NC(=O)[C@H](CC(N)=O)NC(=O)[C@H](C)NC(=O)[C@H](CC(C)C)NC(=O)[C@H](CCCNC(=N)N)NC(=O)[C@H](CCC(N)=O)NC(=O)[C@@H](NC(=O)[C@H](C)NC(=O)[C@@H]1CSSC[C@H](NC(=O)[C@H](CCCCN)NC(=O)[C@@H](N)CCCCNC(=O)CC[C@H](NC(=O)CCCCCCCCCCCCCCCCC(=O)O)C(=O)O)C(=O)N[C@@H](CC(N)=O)C(=O)N[C@@H]([C@@H](C)O)C(=O)N[C@@H](C)C(=O)N[C@@H]([C@@H](C)O)C(=O)N1)[C@@H](C)O)C(C)C)C(=O)NC(C)(C)C(=O)N1CCC[C@H]1C(=O)N1CCC[C@H]1C(=O)N[C@H](C(=O)N[C@@H](CC(N)=O)C(=O)N[C@H](C(=O)NCC(=O)N[C@@H](CO)C(=O)N[C@@H](CC(N)=O)C(=O)N[C@H](C(=O)N[C@@H](Cc1ccc(O)cc1)C(N)=O)[C@@H](C)O)C(C)C)[C@@H](C)O) [Peptide 79 (SEQ ID NO: 79)] | 0.659 | 7 | 4.8
6 | K([γGlu-C18 diacid])KCNTATCATQRLANFLVHSS[Aib]NFGPILPPT[Aib]VGSNTY-NH2 (disulfide 3-8; N-terminus assumed; SMILES CC[C@H](C)[C@H](NC(=O)[C@@H]1CCCN1C(=O)CNC(=O)[C@H](Cc1ccccc1)NC(=O)[C@H](CC(N)=O)NC(=O)C(C)(C)NC(=O)[C@H](CO)NC(=O)[C@H](CO)NC(=O)[C@H](Cc1c[nH]cn1)NC(=O)[C@@H](NC(=O)[C@H](CC(C)C)NC(=O)[C@H](Cc1ccccc1)NC(=O)[C@H](CC(N)=O)NC(=O)[C@H](C)NC(=O)[C@H](CC(C)C)NC(=O)[C@H](CCCNC(=N)N)NC(=O)[C@H](CCC(N)=O)NC(=O)[C@@H](NC(=O)[C@H](C)NC(=O)[C@@H]1CSSC[C@H](NC(=O)[C@H](CCCCN)NC(=O)[C@@H](N)CCCCNC(=O)CC[C@H](NC(=O)CCCCCCCCCCCCCCCCC(=O)O)C(=O)O)C(=O)N[C@@H](CC(N)=O)C(=O)N[C@@H]([C@@H](C)O)C(=O)N[C@@H](C)C(=O)N[C@@H]([C@@H](C)O)C(=O)N1)[C@@H](C)O)C(C)C)C(=O)N[C@@H](CC(C)C)C(=O)N1CCC[C@H]1C(=O)N1CCC[C@H]1C(=O)N[C@H](C(=O)NC(C)(C)C(=O)N[C@H](C(=O)NCC(=O)N[C@@H](CO)C(=O)N[C@@H](CC(N)=O)C(=O)N[C@H](C(=O)N[C@@H](Cc1ccc(O)cc1)C(N)=O)[C@@H](C)O)C(C)C)[C@@H](C)O) [Peptide 80 (SEQ ID NO: 80)] | 0.407 | 7 | 2.97

Reference: patent US20220204580A1 (AstraZeneca / MedImmune, published 2022)
